# Source: PMC5733569, “Sbp1 modulates the translation of Pab1 mRNA in a poly(A)- and RGG-dependent manner” (RNA, 2018)
# T1: C-terminal TAP-tagged eIF4G1 (S. cerevisiae, UniProt P39935 1-952)
# T1 construct: eIF4G1, translation initiation factor of S. cerevisiae; the TAP tag was inserted at the end of the eIF4G1 gene in its chromosome locus; also called eIF4G1-TAP; source: RNase A and 1 M KCl wash to remove endogenous RNAs
# T1 sequence (looked up): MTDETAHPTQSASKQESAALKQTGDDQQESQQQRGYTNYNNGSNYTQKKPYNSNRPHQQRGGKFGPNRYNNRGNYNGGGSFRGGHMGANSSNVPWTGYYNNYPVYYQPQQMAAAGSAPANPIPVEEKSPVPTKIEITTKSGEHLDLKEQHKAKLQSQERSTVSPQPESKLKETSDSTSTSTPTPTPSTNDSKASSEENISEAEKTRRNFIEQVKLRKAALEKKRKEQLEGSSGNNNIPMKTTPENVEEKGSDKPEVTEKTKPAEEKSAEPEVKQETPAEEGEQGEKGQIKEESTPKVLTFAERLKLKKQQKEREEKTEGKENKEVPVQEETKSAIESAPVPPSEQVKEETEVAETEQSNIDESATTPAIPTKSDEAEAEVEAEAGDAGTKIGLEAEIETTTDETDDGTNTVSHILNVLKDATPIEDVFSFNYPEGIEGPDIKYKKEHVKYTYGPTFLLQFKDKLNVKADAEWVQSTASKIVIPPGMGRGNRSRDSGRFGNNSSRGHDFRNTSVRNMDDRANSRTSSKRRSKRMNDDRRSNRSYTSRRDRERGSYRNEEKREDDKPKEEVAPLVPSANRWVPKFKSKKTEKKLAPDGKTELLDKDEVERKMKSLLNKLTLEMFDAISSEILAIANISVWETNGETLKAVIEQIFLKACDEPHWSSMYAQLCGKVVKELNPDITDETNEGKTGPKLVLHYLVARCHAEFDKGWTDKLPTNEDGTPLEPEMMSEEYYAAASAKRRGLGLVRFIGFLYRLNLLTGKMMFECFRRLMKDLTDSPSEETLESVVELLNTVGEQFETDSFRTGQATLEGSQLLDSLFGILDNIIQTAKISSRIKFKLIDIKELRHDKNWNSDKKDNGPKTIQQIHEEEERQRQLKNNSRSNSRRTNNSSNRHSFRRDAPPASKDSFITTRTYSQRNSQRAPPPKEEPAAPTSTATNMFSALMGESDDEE
# Key:
# [1] = system: Sbp1 (Saccharomyces cerevisiae); assay: EMSA; settings: Hill coefficient 2.1 +/- 0.1; EMSA: native 8% PAGE in THEM buffer (34 mM Tris base, 57 mM Hepes, 0.1 mM EDTA, 2.5 mM MgCl2); binding buffer salt, pH and temperature not given in the …
# [2] = system: Sbp1RRM2 (Saccharomyces cerevisiae); assay: EMSA; settings: EMSA: native 8% PAGE in THEM buffer (34 mM Tris base, 57 mM Hepes, 0.1 mM EDTA, 2.5 mM MgCl2); binding buffer salt, pH and temperature not given in the …
# [3] = system: Pab1 (Saccharomyces cerevisiae); assay: EMSA; settings: EMSA: native 8% PAGE in THEM buffer (34 mM Tris base, 57 mM Hepes, 0.1 mM EDTA, 2.5 mM MgCl2); binding buffer salt, pH and temperature not given in the …
# [4] = system: Sbp1RRM1 (Saccharomyces cerevisiae); assay: EMSA; settings: EMSA: native 8% PAGE in THEM buffer (34 mM Tris base, 57 mM Hepes, 0.1 mM EDTA, 2.5 mM MgCl2); binding buffer salt, pH and temperature not given in the …
# [5] = system: Sbp1RGG (Saccharomyces cerevisiae); assay: EMSA; settings: EMSA: native 8% PAGE in THEM buffer (34 mM Tris base, 57 mM Hepes, 0.1 mM EDTA, 2.5 mM MgCl2); binding buffer salt, pH and temperature not given in the …
# [6] = target: Pab1 (purified, as added in the IgG-pulldown and EMSA) (S. cerevisiae) (UniProt P04147)
# [7] = target: T1, C-terminal TAP-tagged eIF4G1; assay: pull-down; IgG-pulldown: eIF4G1-TAP with purified Pab1 and Sbp1 (or Sbp1^m) in the presence of 10x 5′UTR_Pab1 RNA; settings: both partners purified
molecule,measurement,setting,value
5'UTRPab1,Kd,[1],26.5 nM
same,Kd,[2],900 nM
same,Kd,[3],31.2 nM
same,Kd,[4],1100 nM
same,Kd,[5],2700 nM
Sbp1 (natural protein) MSAEIEEATNAVNNLSINDSEQQPRAPTHKTVIDPEDTIFIGNVAHECTEDDLKQLFVEEFGDEVSVEIPIKEHTDGHIPASKHALVKFPTKIDFDNIKENYDTKVVKDREIHIKRARTPGQMQRGGFRGRGGFRGRGGFRGGFRGGYRGGFRGRGNFRGRGGARGGFNGQKREKIPLDQMERSKDTLYINNVPFKATKEEVAEFFGTDADSISLPMRKMRDQHTGRIFTSDSANRGMAFVTFSGENVDIEAKAEEFKGKVFGDRELTVDVAVIRPENDEEEIEQETGSEEKQE,cap-dependent translation initiation activity of the 5′UTR Pab1 luciferase reporter in yeast cell extract with an increasing amount of Sbp1,[6],20 to 60 % decrease
"Pab1 (purified, as added in the IgG-pulldown and EMSA) (natural protein, S. cerevisiae, UniProt P04147 1-577, looked up, it may be the same molecule as m1) MADITDKTAEQLENLNIQDDQKQAATGSESQSVENSSASLYVGDLEPSVSEAHLYDIFSPIGSVSSIRVCRDAITKTSLGYAYVNFNDHEAGRKAIEQLNYTPIKGRLCRIMWSQRDPSLRKKGSGNIFIKNLHPDIDNKALYDTFSVFGDILSSKIATDENGKSKGFGFVHFEEEGAAKEAIDALNGMLLNGQEIYVAPHLSRKERDSQLEETKAHYTNLYVKNINSETTDEQFQELFAKFGPIVSASLEKDADGKLKGFGFVNYEKHEDAVKAVEALNDSELNGEKLYVGRAQKKNERMHVLKKQYEAYRLEKMAKYQGVNLFVKNLDDSVDDEKLEEEFAPYGTITSAKVMRTENGKSKGFGFVCFSTPEEATKAITEKNQQIVAGKPLYVAIAQRKDVRRSQLAQQIQARNQMRYQQATAAAAAAAAGMPGQFMPPMFYGVMPPRGVPFNGPNPQQMNPMGGMPKNGMPPQFRNGPVYGVPPQGGFPRNANDNNQFYQQKQRQALGEQLYKKVSAKTSNEEAAGKITGMILDLPPQEVFPLLESDELFEQHYKEASAAYESFKKEQEQQTEQA",binding result,[7],binds
